Measurements as given in article PMC11650997 (Journal of Virology, 2024).

How the values were obtained:
[1] = biological target: T1, SARS-CoV-2 S protein ectodomain trimer, prefusion conformation, insect cell-expressed (SARS-CoV-2 Wuhan-Hu-1 (MN908947), UniProt P0DTC2, stabilised); assay: SPR; […] (100 nM, 30 s) […]; 1:1 Langmuir fit; details: both partners purified
T1 construct: also called S trimer; trimeric S protein

[2] = biological target: T2, SARS-CoV-2 S protein ectodomain trimer in prefusion conformation (insect cell-expressed) (SARS-CoV-2 Wuhan-Hu-1 (MN908947), UniProt P0DTC2, stabilised); assay: SPR; […] (100 nM) […]; 1:1 Langmuir fit; details: both partners purified
T2 construct: also called trimeric SARS-CoV-2 S protein; S trimer

Binder | Kd [1] [nM] | koff [1] [s⁻¹] | kon [1] [M⁻¹ s⁻¹] | fold lower KD for the S trimer than for the monomeric RBD [2] [fold]
pT1616 (human monoclonal antibody, IgG1) (antibody, V domains shown, also called bnAb pT1616; nAb pT1616; source: HEK293ExPi, transfected, purified from the supernatant (Protein G, SEC)) VH: QVQLVQSGAEVKKPGSSVKVSCKASGGTFSSYTISWVRQAPGQGLECMGRIIPILGIANYAQKFQGRVTITADKSTSIAYMEVSSLRSEDTAVYYCATEVGYSGYGSAEYFNHWGQGTPVTVSS VL: QSVLTQPPSVSGAPGQRVTISCTGSNSNIGAGYDVHWYQQLPGTAPKLLIYANNNRPSGVPDRFSGSRSGTSASLVITGLQADDEADYYCQSYDSSLTGSLFGGGTKLTVL | 0.083 | 6.9e-05 | 840000 | 
pT1616 IgG1 (antibody, V domains shown, also called bnAb pT1616; nAb pT1616; source: HEK293ExPi, transfected, purified from supernatant (Protein G, SEC)) VH: QVQLVQSGAEVKKPGSSVKVSCKASGGTFSSYTISWVRQAPGQGLECMGRIIPILGIANYAQKFQGRVTITADKSTSIAYMEVSSLRSEDTAVYYCATEVGYSGYGSAEYFNHWGQGTPVTVSS VL: QSVLTQPPSVSGAPGQRVTISCTGSNSNIGAGYDVHWYQQLPGTAPKLLIYANNNRPSGVPDRFSGSRSGTSASLVITGLQADDEADYYCQSYDSSLTGSLFGGGTKLTVL |  |  |  | > 3
